From the RNAGym collection of RNA variant scans (doi:10.7554/elife.80360) come the findings set out here.

The chains are these.
B1: CPEB3 Ribozyme (parent)
chain: GGGGGCCACAGCAGAAGCGUUCACGUCGCGGCCCCUGUCAGAUUCUGGUGAAUCUGCGAAUUCUGCUGU

The data set covers variants of B1. The data set is described as follows: self-cleavage, relative activity (ratio to wild type); higher = more cleavage; co-transcriptional.
As for GGGGGCCACAGCAGAAGCGUUCACGUCGCGGCCCCUCUCAGAUUCUGGUGUAUCUGCGAAUUCUGCUGU [G37C A51U], the self-cleavage came to 0.171.
The same measure for GGGGGCCACAGCAGAAGCGUUCACGUCGCGGCCCCUCUCAGAUUCUGGUGCAUCUGCGAAUUCUGCUGU [G37C A51C]: 0.251; for GGGGGCCACAGCAGAAGCGUUCACGUCGCGGCCCCUCUAAGAUUCUGGUGAAUCUGCGAAUUCUGCUGU [G37C C39A]: 0.215.
Then GGGGGCCACAGCAGAAGCGUUCACGUCGCGGCCCCUCUGAGAUUCUGGUGAAUCUGCGAAUUCUGCUGU [G37C C39G], with 0.167; and GGGGGCCACAGCAGAAGCGUUCACGUCGCGGCCCCUCUUAGAUUCUGGUGAAUCUGCGAAUUCUGCUGU [G37C C39U], with 0.268; and GGGGGCCACAGCAGAAGCGUUCACGUCGCGGCCCCUAUCAGAUUCUGGUGAAUCUGCGAAUACUGCUGU [G37A U62A], with 0.225.
Take GGGGGCCACAGCAGAAGCGUUCACGUCGCGGCCCCUAUCAGAUUCUGGUGAAUCUGCGAAUCCUGCUGU [G37A U62C]: the self-cleavage turned out to be 0.321.
Then GGGGGCCACAGCAGAAGCGUUCACGUCGCGGCCCCUAUCAGAUUCUGGUGAAUCUGCCAAUUCUGCUGU [G37A G58C], with 0.344; and GGGGGCCACAGCAGAAGCGUUCACGUCGCGGCCCCUCUCAGAUUUUGGUGAAUCUGCGAAUUCUGCUGU [G37C C45U], with 0.203.
The same measure for GGGGGCCACAGCAGAAGCGUUCACGUCGCGGCCCCUCUCAGAUUAUGGUGAAUCUGCGAAUUCUGCUGU [G37C C45A]: 0.168; for GGGGGCCACAGCAGAAGCGUUCACGUCGCGGCCCCUCUCAGAUUCUGGUGAAUCUGCGAAUUCUGGUGU [G37C C66G]: 0.177.
Then GGGGGCCACAGCAGAAGCGUUCACGUCGCGGCCCCUCUCAGAUUCUGGUGAAUCUGCGAAUUCUGUUGU [G37C C66U], with 0.246; and GGGGGCCACAGCAGAAGCGUUCACGUCGCGGCCCCUCUCAGAUUCUGGUGAAUCUGCGAAUUCUGAUGU [G37C C66A], with 0.222; and GGGGGCCACAGCAGAAGCGUUCACGUCGCGGCCCCUCUCAGAUUCUGUUGAAUCUGCGAAUUCUGCUGU [G37C G48U], with 0.288.
On to GGGGGCCACAGCAGAAGCGUUCACGUCGCGGCCCCUCUCAGAUUCUGAUGAAUCUGCGAAUUCUGCUGU [G37C G48A], for which the self-cleavage was found to be 0.182.
The same measure for GGGGGCCACAGCAGAAGCGUUCACGUCGCGGCCCCUAUCAGAUUCUGGUGAAUCUCCGAAUUCUGCUGU [G37A G56C]: 0.232; for GGGGGCCACAGCAGAAGCGUUCACGUCGCGGCCCCUCUCAGAUUCUGGUGAAUUUGCGAAUUCUGCUGU [G37C C54U]: 0.25; for GGGGGCCACAGCAGAAGCGUUCACGUCGCGGCCCCUCUCAGAUUCUGGUGAAUAUGCGAAUUCUGCUGU [G37C C54A]: 0.201.
The same measure for GGGGGCCACAGCAGAAGCGUUCACGUCGCGGCCCCUCUCAGAUUCUGGUGAAUCUGCGAAUUCUGCUGU [G37C]: 0.241; for GGGGGCCACAGCAGAAGCGUUCACGUCGCGGCCCCUCUCAGUUUCUGGUGAAUCUGCGAAUUCUGCUGU [G37C A42U]: 0.234; for GGGGGCCACAGCAGAAGCGUUCACGUCGCGGCCCCUAUCAGAUUCUGGUCAAUCUGCGAAUUCUGCUGU [G37A G50C]: 0.215.
Then GGGGGCCACAGCAGAAGCGUUCACGUCGCGGCCCCUAUCAGAUUCUGGUUAAUCUGCGAAUUCUGCUGU [G37A G50U], with 0.28.
On to GGGGGCCACAGCAGAAGCGUUCACGUCGCGGCCCCUAUCACAUUCUGGUGAAUCUGCGAAUUCUGCUGU [G37A G41C], for which the self-cleavage was 0.192.
The same measure for GGGGGCCACAGCAGAAGCGUUCACGUCGCGGCCCCUAUCAAAUUCUGGUGAAUCUGCGAAUUCUGCUGU [G37A G41A]: 0.231; for GGGGGCCACAGCAGAAGCGUUCACGUCGCGGCCCCUAUCAGAUCCUGGUGAAUCUGCGAAUUCUGCUGU [G37A U44C]: 0.326; for GGGGGCCACAGCAGAAGCGUUCACGUCGCGGCCCCUAUCAGAUGCUGGUGAAUCUGCGAAUUCUGCUGU [G37A U44G]: 0.223.
Then GGGGGCCACAGCAGAAGCGUUCACGUCGCGGCCCCUAUCAGAUUCUGUUGAAUCUGCGAAUUCUGCUGU [G37A G48U], with 0.251; and GGGGGCCACAGCAGAAGCGUUCACGUCGCGGCCCCUAUCAGAUUCUGGUGAAUCUGCGAAUUCUGUUGU [G37A C66U], with 0.263.
Consider GGGGGCCACAGCAGAAGCGUUCACGUCGCGGCCCCUCUCAGAUUCUGGUCAAUCUGCGAAUUCUGCUGU [G37C G50C], for which the self-cleavage is 0.265.
The same measure for GGGGGCCACAGCAGAAGCGUUCACGUCGCGGCCCCUCUCAGAUUCUGGUAAAUCUGCGAAUUCUGCUGU [G37C G50A]: 0.257.
Then GGGGGCCACAGCAGAAGCGUUCACGUCGCGGCCCCUAUCAGAUUCUGGUGAAUCUGCGAAUUCUGCUGC [G37A U69C], with 0.498; and GGGGGCCACAGCAGAAGCGUUCACGUCGCGGCCCCUAUCAGAUUCUGGUGAAUCCGCGAAUUCUGCUGU [G37A U55C], with 0.216.
Then GGGGGCCACAGCAGAAGCGUUCACGUCGCGGCCCCUAUCAGAUUCUGGUGAAUCAGCGAAUUCUGCUGU [G37A U55A], with 0.275; and GGGGGCCACAGCAGAAGCGUUCACGUCGCGGCCCCUAUCAGAUUCUGGUGAAUCUGCGAAUUCUCCUGU [G37A G65C], with 0.258; and GGGGGCCACAGCAGAAGCGUUCACGUCGCGGCCCCUAUCAGAUUCUGGUGAAUCUGCGAAUUCUUCUGU [G37A G65U], with 0.325.
Regarding GGGGGCCACAGCAGAAGCGUUCACGUCGCGGCCCCUAUCAGAUUCUGGUGAAUCUGCGAAUUCUACUGU [G37A G65A], the self-cleavage is 0.252.
GGGGGCCACAGCAGAAGCGUUCACGUCGCGGCCCCUAUCAGAUUCUAGUGAAUCUGCGAAUUCUGCUGU [G37A G47A]: the self-cleavage was determined as 0.312.
On to GGGGGCCACAGCAGAAGCGUUCACGUCGCGGCCCCUAUCAGAUUCUUGUGAAUCUGCGAAUUCUGCUGU [G37A G47U], for which the self-cleavage came to 0.36.
The same measure for GGGGGCCACAGCAGAAGCGUUCACGUCGCGGCCCCUAUCAGAUUCUCGUGAAUCUGCGAAUUCUGCUGU [G37A G47C]: 0.308.
